Consider 19 sequences from the DeepSol protein solubility set.

A short description of this series: soluble on expression in E. coli; label from the status in PepcDB or PDB records.
“METIVQKFGGTSVGSVERIQHVANLIIEEYERGHSIVSVVSAMGKSTDELVALANAITENPSKREMDMLLSTGEQVTISLLTMALQAKGYHAISLTGWQAGITTESVHSSARITDIHTDRIQSYLAEGTIVIVAGFQGVSEDFEITTLGRGGSDTTAVALAAALKAKKCDIYTDVTGVYTTDPRVVKDAYKLDEISYDEMLELANLGAGVLHPRAVEFAKNHNVVLEVRSSMEQENGTIVKGECNMEQQSIVKGIAFEDNITRVTIKGLEQGSLSTVFSTLAAAHINVDIIIQSITNEGTVHLSFSIHSNDLRETLEVLEQNQEALHYEAVEYENHLAKVSIVGSGMVSNPGVAANMFTTLKEEDIHIKMVSTSEIKVSVVIDRLHLVTGVEALHQSFMAKIEPFVQMS”: the “soluble on expression in E. coli” value is reported as “not soluble”.
Then “MGSDKIHHHHHHVALLQDELKIRKIHELLHMKLALPPYQRPYSWSVKSANTLFQDTYNAYHEGLQEYRVGSVILHKENGKYNIVDGQQRLTTISILLYCLGEKDLGLLQEKYNQLSNDVIVTNYEILSKRISELPKDEQNKYKNYLFERCSVVQIVTDSEQEAFQFFDSQNSRGKELTPHDLLKSYHLREMNDEEENQKIRIINQWENVNQDDLNDLFKIYLYPLTQWYKGKSGLGYSSSKIDVFKGIKTTNVFNYAIYHKASNLFVEQFNANGSNELLASRALNQFQLTQPLMAGKRFFYYTLHYRNLLEQVQRLVSKVHTEEQVPSRRTGDLYIKQLYECALLFFADRFGIENLSKAVMQQLYTWSYSLRLVMEAVYLQTINKYVRGEHERVNYGLGMFSEISEMKNGEELKLISLEQPKIENKNKEKYRDVYDLLCEWNRW”, with “not soluble”; and “HHMAQANFGVVGMAVMGKNLALNVESRGYTVAIYNRTTSKTEEVFKEHQDKNLVFTKTLEEFVGSLEKPRRIMLMVQAGAATDATIKSLLPLLDIGDILIDGGNTHFPDTMRRNAELADSGINFIGTGVSGGEKGALLGPSMMPGGQKEAYDLVAPIFEQIAAKAPQDGKPCVAYMGANGAGHYVKMVHNGIEYGDMQLIAESYDLLKRILGLSNAEIQAIFEEWNEGELDSYLIEITKEVLKRKDDEGEGYIVDKILDKAGNKGTGKWTSESALDLGVPLPLITESVFARYISTYKDERVKASKVLSGPALDFSGDKKEVIEKIRKALYFSKIMSYAQGFAQLRKASEEFDWDLPYGTIAQIWRAGCIIRAEFLQNITDAFDKDSELENLLLDDYFVDITKRYQEAVRDVVSLAVQAGTPIPTFTSAISYYDSYRSENLPANLIQAQRDYFGAHTYERTDKAGIFHYDWYTED”, with “soluble”; and “MHYVTPDLCDAYPELVQVVEPMFSNFGGRDSFGGEIVTIKCFEDNSLVKEQVDKDGKGKVLVVDGGGSLRRALLGDMLAEKAAKNGWEGIVVYGCIRDVDVIAQTDLGVQALASHPLKTDKRGIGDLNVAVTFGGVTFRPGEFVYADNNGIIVSPQALKMPELEHHHHHH”, with “soluble”.
Turning to “MKFPGKRKSKHYFPVNARDPLLQQIQPENESSVSWVVGIDQTLVDIEAKVDEAFIVRYGLSAGHSLVIEDDVAEALYQELVRNNLITHQFAGGTIGNTMHNYSVLADDRSVLLGVMCSNIEIGGYAYRYLCNTSSRTDLNYLQGVDGAIGRCFTLIGDSGERTFAISPGHMNKLRPESIPEAVIAGASALVLTSYLVRCKPGEPMPDATMKAIEYAKKHDVPVVLTLGTKYVIADNPAWWQEFLQEHVSILAMNEEEGEALTGFADPLSAANKALDWVDLVLCTAGPAGLYMAGFTEEEAKRKTQHPLLPGAIPEFNQFEFSRAMRHQDCVNPLRIYSHIAPYMGGPEKIMNTNGAGDGALAALLHDITANNYHRNNVPNSSKHKCKWLTYSSLAQVCKYANRVSYQVLNQHSPRLTRGLPEREDSLEEAYWDR”, the “soluble on expression in E. coli” value is reported as “not soluble”.
The same measure for “MGSSHHHHHHGGTGENLYFQGGSGMEKAIRDRVEKWKKEHTIDGKDATNEHAYESLNELILDGKKLTSIKNEEKELLKNFKNLERLCLNQTGIQTLENIPSIATLNVLELTDNHLSSVEVLKYIVQNFPNIKTLEIGGNHFKNINDFETLKELKNLVRLGVQFNPFADNPNYRKELFEFLPNVKIIDCYNKEGMEVLSSDEEEEEEYEEDNTLKNFYEADFKDEDDEDEEFVPNDNEDDDEDDELDDDLEDEDMEDLDKEDLDKEDYDIDTKETEGVNKDEKSNKRKQDALDNTNDMDLKKTKLE”: “soluble”; for “LYGYYCMQEEEQLVYWYSGLYLQPQHFQSIDLHHGFMLARSRQLSQPHHQGYYECCINDDLLKEDTVRVEKIKAVLSSGYYIEYPGNCVVQDKCLTNLKGSDHGTVDLWLALKRFNSGHKNVSSVNDKRGSARWISSDDERNMRNVYHDSQDADITRIKYDIQILTDEEKDNTTDYEYLPLTRIIYGNNSLCIDDECSFPVMRLSANHKLRNKIAEIYSDIKFYKNRLEKYRYTERTVSDGHLYNFLILCAINRTLPLLSSFINEDAIHPWLYYMALCQFAGEISTFHNSGLSDTRIVELSYNHYEQISCFSDLQYYIKLILDDSCRDKIISVEFRKITTDTLICNFDEYGAGSNSDYYIKLTSDTFRKNKLIALPEIKIAPSEHIDMIIQHALPGIKFTVMDAVTSDLQVRENTIWLKIDKHSELWTLAQTQKRVAFYWSCSPDDLLVELVLSQEKYAVSRPKQDNGSFHPAVGR”: “not soluble”; for “MADEATRRVVSEIPVLKTNAGPRDRELWVQRLKEEYQSLIRYVENNKNADNDWFRLESNKEGTRWFGKCWYIHDLLKYEFDIEFDIPITYPTTAPEIAVPELDGKTAKMYRGGKICLTDHFKPLWARNVPKFGLAHLMALGLGPWLAVEIPDLIQKGVIQHKEKCNQLEHHHHHH”: “soluble”.
Then “MRLNIAPAPWPGAPVVVLSAGLGGGGGYWLAQRAALEEQYQLVSYDHNGTGENAGPLPAGYSLATMAGELFSALQAAGIARFALVGHALGALIGLQLALDRPEAVSALALVNGWLSLSPHTRRCFQVRERLLHAGGAQAWVEAQPLFLYPAEWMAARLPRLEAEDALAISHFQGKENLLKRLQALKQADFSRRASAIACPTLIISAADDLLVPASCSRVLQTAIPGSQLVEMPWGGHACNVTDADTFNTILRDGLSAMLPVARETR”, with “not soluble”; and “MGSDKIHHHHHHMTVLIIGMGNIGKKLVELGNFEKIYAYDRISKDIPGVVRLDEFQVPSDVSTVVECASPEAVKEYSLQILKNPVNYIIISTSAFADEVFRERFFSELKNSPARVFFPSGAIGGLDVLSSIKDFVKNVRIETIKPPKSLGLDLKGKTVVFEGSVEEASKLFPRNINVASTIGLIVGFEKVKVTIVADPAMDHNIHIVRISSAIGNYEFKIENIPSPENPKTSMLTVYSILRTLRNLESKIIFG”, with “soluble”.
Then “MSLNKFVDREGSVVAVYAAKSKAGCSAPDVEKVNQDAFCLVEKYGDSPNLSWFSVMDGHGLNGHLVSDIVRQILHKNVQECPEFNRDIKQALQKGFFRTNCELFQPGIDITMSGTTCVACVFHGSTLYSANVGDSRAIMGRSNGKGGWTSLSLTHDHKPDRPDEEKRILAADGRVGALKGPNGEALGPARVWRKDCDAPGLAMSRSLGDSLAASVGVIDDFIVIASDGLWEFMTNEEVTQIVSRFLDSRDPLGACDGLIEEANRRWRLEDDVIDDTTVVVIFLDVGRKEGHHHHHH”, with “not soluble”; and “MSESSRIREKYPDRIPVIVEKAGQSDVPDIDKKKYLVPADLTVGQFVYVVRKRIKLGAEKAIFVFVKNTLPPTAALMSAIYEEHKDEDGFLYMTYSGENTFGSLTVA”, with “soluble”.
Consider “MGSDKIHHHHHHMSLTRLNIEAFRNIQSAQLIPAPGINLIYGQNGSGKTSILEAIYFLGMGRSFRSHLSQRVINNDDDKLTLFATLNLARGDSKIGLRRFRSGETEVRIDGEKVKRLSTLAETLPIQVITPESFSLLFEGPKSRRQFIDWGAFHADPQFYGAWTNVRRVLKQRNQLLRNGSAYSNIQFWDQEFVRYAEQVTEIRNHYVDSLNELLKGIIGEFLPSVDVKVSFTRGWDSKTDFAELLENQYSRDLATGHTVSGPHKADLRLRVGTLPAQDALSRGQLKLLVCALRIAQGKLLKQQIDKHSIYLVDDLPSELDAQHRQLLLKQLTDTGAQVFVTAIDPAAIVDSLHTPPSRMFHVEQGRVTVIE”, for which the “soluble on expression in E. coli” value was “not soluble”.
The same measure for “MGEVRVVGIRVEQPQNQPVLLLREANGDRYLPIWIGQSEAAAIALEQQGVEPPRPLTHDLIRDLIAALGHSLKEVRIVDLQEGTFYADLIFDRNIKVSARPSDSVAIALRVGVPIYVEEAVLAQAGLLIPDESDEEATTAVREDEVEKFKEFLDSVSPDDFKAT”: “soluble”; for “KEYSHLPIKGNESNLIDTLEDAISLRVPKNRPFAVALSGGLDSSIIAYILEARLSENAHYYVVGERYPDSVLALLEHLNICLSRVHLIKPPPADELLKLITKTCHITKSYNPSIISNGLATLLLCKAVHQDGIRVMLSGEGADEFFCGYQGMYNGRNDPTEMRANLIKDLHFTELRRLDLISASFSVEARCPFLDQRVTQIAMMLDVKNLCDIPMNIGKTLLRDTFKHLLPHSIINAPKESFDITSGLQKLVIDELQKEFKSERVALRTIFEKTLANY”: “not soluble”.
The same measure for “MGSDKIHHHHHHMNQSLRPDKAALVELFRDFIEPQYVINDEETQKPFECDGLSVYCDMPLITVLPKTVEQVCEVMRICYRYQIPVVARGAGTGLCAGAMPNPDGVLLVLSRFKHILDIDPLARSARLQPGVRNLAISEAASPYGLYYGPDPSSQIACSIGGNVAENSGGVHCLKYGLTTHNLLKIEMVTVEGELITIGSEGLDSNGFDLMALITGSEGLLGVITEVTVKLLPSPEKAQVIMAGFDNVQTAGDAVGGVIAKGIIPAGLEMMDSPAIIAAEAFAHAGYPTDAQALLLCELDGSEAEVQEQIAEVEQLFIELGATTTRVSQSEAERALLWKGRKSAFPAVGRISPDYYCMDGTIPRSQLAHVLTEMQKLSEQYGLRVANVFHAGDGNLHPLILFDANVPGELERTEEFGSRILELCVKVGGCITGEHGVGVEKIRQMTIQFNDQELTQFHAIKHAFDPIGTLNPGKGIPVLKRCQEYRTLDRPQHKHDSQPQQGDLA”: “not soluble”; for “SSGNHIFKGRAAGIAVNENGKGLITENVIRENQWGGVDIRRGGIPVLRSNLICFGYSDGVVVGDEGKGLIEGNTIYANKGCGVWMMSSSLPHVTSNHVSYNGLYGVAVFSQKDGSSELPRGHRAQENFSEDGDAILWETELEKEDDPLRRPITIALVESNSINHNGASGLYVQSSEALHVITNVIHANGDRGITVAQSSQPTRVANNSISCNRQSGVKVEAQCKVELRGNGIYDNRGHGIITKGDSTIVIENDIIGNRGSGLQLLPRSDTKVIKNRIHSFRAYGIAVRGRAKALVQENIIFQGKTSKTIFQQISNNRECIMQNNKFLVFKKKSDTWR”: “soluble”; for “MGSDKIHHHHHHITPSISSKADNLIPRTNLEISNGQVFNESQIRLRGWGLNASGIKAIDIYVDGTWKKTLVKGDGFGLSRPDVKQAFPEYPDADYSGYDYYMYLPDGNHTLRVWAIGNDNSKVYSEANITVDTSNSKGTQLVNYARKFIGVPYVWGGDTPNGFDCSGLVMYCYAHFGVNLPHYTGDQVKYGTVVTDLQPGDLLFFGSTSDPYHVAIYSGNGYMIEAPKTGENVHETPVRSYSIAKRIF”: “not soluble”.
The same measure for “AQVPASGKLLVDPRYSTNDQEESILQDIITRFPNVVLMKQTAQLRAMMTIIRDKETPKEEFVFYADRLIRLLIEEALNELPFQKKEVTTPLDVSYHGVSFYSKICGVSIVRAGESMESGLRAVCRGVRIGKILIQRDETTAEPKLIYEKLPADIRERWVMLLDPMCATAGSVCKAIEVLLRLGVKEERIIFVNILAAPQGIERVFKEYPKVRMVTAAVDICLNSRYYIVPGIGDFGDRYFGTM”: “soluble”.
